Test results taken from patent US20080051336A1 (Janssen / Centocor, published 2008).
Read-outs that look alike come from different tables or passages of the source. Ends that are not written are not given here.

T1: human GPCR135 (human, UniProt Q9NSD7 1-469)
T1 sequence: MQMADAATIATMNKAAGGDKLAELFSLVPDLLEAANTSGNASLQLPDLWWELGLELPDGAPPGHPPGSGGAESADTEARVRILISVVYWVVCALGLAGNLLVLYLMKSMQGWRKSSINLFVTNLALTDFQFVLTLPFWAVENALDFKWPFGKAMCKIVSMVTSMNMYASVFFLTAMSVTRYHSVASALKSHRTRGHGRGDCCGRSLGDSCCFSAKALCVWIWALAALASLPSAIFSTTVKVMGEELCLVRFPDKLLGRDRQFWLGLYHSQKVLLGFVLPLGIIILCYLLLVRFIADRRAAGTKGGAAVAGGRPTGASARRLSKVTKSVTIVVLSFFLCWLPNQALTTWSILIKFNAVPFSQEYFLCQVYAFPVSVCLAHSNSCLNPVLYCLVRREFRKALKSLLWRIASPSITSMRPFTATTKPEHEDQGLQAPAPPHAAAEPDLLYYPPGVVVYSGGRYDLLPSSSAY

T2: human LGR7 (human, UniProt Q9HBX9 1-757)
T2 sequence (looked up): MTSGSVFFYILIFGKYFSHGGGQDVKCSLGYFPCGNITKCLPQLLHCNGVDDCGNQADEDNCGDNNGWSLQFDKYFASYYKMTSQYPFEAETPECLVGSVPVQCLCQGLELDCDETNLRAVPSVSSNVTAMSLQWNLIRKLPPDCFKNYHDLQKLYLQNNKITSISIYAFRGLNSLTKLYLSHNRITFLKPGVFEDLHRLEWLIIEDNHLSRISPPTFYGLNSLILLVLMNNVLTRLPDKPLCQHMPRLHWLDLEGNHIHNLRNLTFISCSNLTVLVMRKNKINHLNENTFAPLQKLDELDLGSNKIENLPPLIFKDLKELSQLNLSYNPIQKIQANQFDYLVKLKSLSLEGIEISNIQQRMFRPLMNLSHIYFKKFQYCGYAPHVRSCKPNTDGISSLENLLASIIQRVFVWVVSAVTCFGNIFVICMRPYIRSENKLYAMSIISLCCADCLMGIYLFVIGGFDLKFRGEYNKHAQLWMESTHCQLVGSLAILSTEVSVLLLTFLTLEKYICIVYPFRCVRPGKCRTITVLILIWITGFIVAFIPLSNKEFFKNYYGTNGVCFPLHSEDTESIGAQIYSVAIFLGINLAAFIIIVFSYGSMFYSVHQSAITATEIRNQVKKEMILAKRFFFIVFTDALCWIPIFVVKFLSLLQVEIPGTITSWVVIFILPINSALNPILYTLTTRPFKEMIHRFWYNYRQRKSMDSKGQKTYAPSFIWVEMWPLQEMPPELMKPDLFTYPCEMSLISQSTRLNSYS

B1: human relaxin-3/INSL3 chimeric polypeptide (R3/I3), mature (ligand)
chain: RAAPYGVRLCGREFIRAVIFTCGGSRWNPARYCCLSGCTQQDLLTLC
modifications: disulfide (positions not given here); also: two chains (relaxin-3 B-chain, INSL3 A-chain), disulfide-linked, chain break not marked
notes: Mature two-chain peptide: human relaxin-3 B-chain disulfide-linked to human INSL3 A-chain; FLAG tag removed
B2: human relaxin-3/relaxin-2 chimeric polypeptide (R3/R2), mature (ligand)
chain: RAAPYGVRLCGREFIRAVIFTCGGSRWQLYSALANKCCHVGCTKRSLARFC
modifications: disulfide (positions not given here); also: two-chain peptide (relaxin-3 B chain, relaxin-2 A chain), disulfide-linked, places not given here
notes: Mature two-chain peptide: human relaxin-3 B-chain disulfide-linked to human relaxin-2 A-chain; FLAG tag removed
B3: human relaxin-3/INSL6 chimeric polypeptide (R3/I6), mature (ligand)
chain: RAAPYGVRLCGREFIRAVIFTCGGSRWGYSEKCCLTGCTKEELSIAC
modifications: disulfide (positions not given here); also: two chains (relaxin-3 B-chain, INSL6 A-chain), disulfide-linked, chain break not marked
notes: Mature two-chain peptide: human relaxin-3 B-chain disulfide-linked to human INSL6 A-chain; FLAG tag removed
B4: human relaxin-3/relaxin-1 chimeric polypeptide (R3/R1), mature (ligand)
chain: RAAPYGVRLCGREFIRAVIFTCGGSRWPYVALFEKCCLIGCTKRSLAKYC
modifications: disulfide (positions not given here); also: two chains (relaxin-3 B-chain, relaxin-1 A-chain), disulfide-linked, chain break not marked
notes: Mature two-chain peptide: human relaxin-3 B-chain disulfide-linked to human relaxin-1 A-chain; Made in COS-7 cells with furin; the FLAG tag was removed with enterokinase
B5: human INSL3 (ligand)
chain: PTPEMREKLCGHHFVRALVRVCGGPRWSTEANPARYCCLSGCTQQDLLTLC
modifications: ends and bridges not checked; also: 125I-labelled form used as tracer, site not given here

Key:
[1] = molecular target: T1, human GPCR135; assay: cell-based or functional assay
[2] = molecular target: T3, human GPCR142 (human, UniProt Q8TDU9 1-374); assay: cell-based or functional assay
[3] = molecular target: T2, human LGR7; assay: cell-based or functional assay
[4] = molecular target: T4, human LGR8 (human, UniProt Q8WXD0 1-754); assay: cell-based or functional assay
[5] = molecular target: T4, human LGR8; assay: cell-based or functional assay; remark: listed apart in the source
[6] = molecular target: T1, human GPCR135; assay: cell-based or functional assay; remark: listed apart in the source
[7] = molecular target: T3, human GPCR142; assay: cell-based or functional assay; remark: listed apart in the source
[8] = molecular target: T2, human LGR7; assay: cell-based or functional assay; remark: listed apart in the source
[9] = molecular target: T4, human LGR8; assay: cell-based or functional assay; remark: listed apart in the source
[10] = molecular target: T4, human LGR8; assay: competition with [125I]-INSL3 (100 pM), live COS-7 cells with human LGR8
Protocol: (§1) Different unlabeled peptides were used in the binding assay as the competitors. […] Data represent mean±SEM (n=3).
(§2) Radioligand binding assays for LGR7 and LGR8 were performed using live COS-7 cells transiently transfected with LGR7 or LGR8 expression plasmids in 15-cm culture dishes using LipofectAmine (Invitrogen). Two days after transfection, the transfected cells were detached from the 15-cm culture dished using phosphate buffered saline (PBS) plus 10 mM EDTA, seeded into 96-well opaque poly-D-lysine coated culture plates and used for radioligand binding assays. […] [¹²⁵I]-labeled tracer was added in binding reactions at a final concentration of 100 pM in binding buffer containing DMEM plus 50 mM HEPES and 1% bovine serum albumin. […] The binding mixtures were incubated at room temperature for 1 hour. The unbound radioligand was removed by aspiration of the binding buffer. The cells were washed with PBS. The bound radioligand was counted in a scintillation counter (TopCount/NTX). The results were analyzed using Prism 3.0 program (Graphpad, San Diego, Calif.).

[11] = molecular target: T2, human LGR7; assay: competition with [125I]-relaxin-3 (100 pM), live COS-7 cells with human LGR7
Protocol: as §1, §2

[12] = molecular target: T1, human GPCR135; assay: competition with [125I]-relaxin-3 (100 pM), COS-7 membranes with human GPCR135
Protocol: as §1
(§3) Peptides for competition binding studies were added to the binding mix (final volume: 200 μl) in binding buffer [50 mM Tris-HCl, pH 7.5, 5 mM EDTA, 1% bovine serum albumin, 0.1% protease inhibitor cocktails (Sigma)]. The binding mixtures were incubated at room temperature for 1 hour, filtered through GFC plates (Packard) pre-saturated with 0.3% Polyethylenimine (Sigma), and washed with cold washing buffer (50 mM Tris-HCl, pH 7.5, 5 mM EDTA).

[13] = molecular target: T3, human GPCR142; assay: competition with [125I]-relaxin-3 (100 pM), COS-7 membranes with human GPCR142
Protocol: as §1, §3

[14] = molecular target: T4, human LGR8; assay: competition with [125I]-INSL3, live COS-7 cells with human LGR8; this end tied to R3/I3 by Table 1
Protocol: as §1, §2

[15] = molecular target: T2, human LGR7; assay: cell-based or functional assay; remark: listed apart in the source
[16] = molecular target: T1, human GPCR135; assay: cell-based or functional assay; remark: listed apart in the source
[17] = molecular target: T3, human GPCR142; assay: cell-based or functional assay; remark: listed apart in the source
[18] = molecular target: T2, human LGR7; assay: radioligand competition, live COS-7 cells with human LGR7
Protocol: as §1, §2

[19] = molecular target: T4, human LGR8; assay: competition with [125I]-INSL3 (100 pM) on live COS-7 cells expressing human LGR8; ND denotes no activity was detected
Protocol: as §1, §2

T3 sequence (Q8TDU9 whole entry L329S): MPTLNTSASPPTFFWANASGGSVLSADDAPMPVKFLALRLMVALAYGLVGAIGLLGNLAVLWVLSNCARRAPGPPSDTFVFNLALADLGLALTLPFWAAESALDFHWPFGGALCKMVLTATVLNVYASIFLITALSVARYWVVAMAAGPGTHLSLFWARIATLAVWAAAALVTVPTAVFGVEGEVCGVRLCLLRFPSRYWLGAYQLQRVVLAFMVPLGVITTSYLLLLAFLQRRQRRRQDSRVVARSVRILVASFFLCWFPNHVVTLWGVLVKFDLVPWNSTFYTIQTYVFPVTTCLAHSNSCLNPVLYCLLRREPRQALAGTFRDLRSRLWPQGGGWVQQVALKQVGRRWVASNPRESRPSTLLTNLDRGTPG
T4 sequence (Q8WXD0 whole entry): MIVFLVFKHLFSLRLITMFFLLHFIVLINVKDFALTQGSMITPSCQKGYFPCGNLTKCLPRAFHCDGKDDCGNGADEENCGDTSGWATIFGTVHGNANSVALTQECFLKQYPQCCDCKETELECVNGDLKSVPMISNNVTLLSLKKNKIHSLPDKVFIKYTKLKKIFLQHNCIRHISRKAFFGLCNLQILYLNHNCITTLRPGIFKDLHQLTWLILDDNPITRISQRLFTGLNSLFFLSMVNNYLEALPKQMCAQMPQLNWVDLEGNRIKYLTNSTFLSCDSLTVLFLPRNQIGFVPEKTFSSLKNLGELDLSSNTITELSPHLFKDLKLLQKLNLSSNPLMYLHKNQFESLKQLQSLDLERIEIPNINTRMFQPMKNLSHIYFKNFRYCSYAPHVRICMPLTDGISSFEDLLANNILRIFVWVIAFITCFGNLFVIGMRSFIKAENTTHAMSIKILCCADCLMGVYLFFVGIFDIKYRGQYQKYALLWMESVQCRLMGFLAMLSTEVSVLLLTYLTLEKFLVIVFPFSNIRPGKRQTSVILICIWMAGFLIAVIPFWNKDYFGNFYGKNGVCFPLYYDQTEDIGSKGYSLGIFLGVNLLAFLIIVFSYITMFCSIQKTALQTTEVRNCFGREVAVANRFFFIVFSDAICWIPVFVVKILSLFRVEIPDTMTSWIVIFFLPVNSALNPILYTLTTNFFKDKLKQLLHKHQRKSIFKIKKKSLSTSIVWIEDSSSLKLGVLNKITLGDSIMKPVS

Molecule	EC50, inhibition of forskolin stimulated β-galactosidase expression [6] [nM]	EC50, inhibition of forskolin stimulated β-galactosidase expression [7] [nM]	EC50, ligand stimulated β-galactosidase expression [8] [nM]	EC50, ligand stimulated β-galactosidase expression [9] [nM]	IC50 [10] [nM]	IC50 [11] [nM]	IC50 [12] [nM]	IC50 [13] [nM]	EC50, ligand stimulated β-galactosidase expression [15] [nM]	also measured
human relaxin-3 B-chain (from UniProt Q8WXF3 26-52) (peptide)										EC50, inhibition of forskolin-stimulated β-galactosidase activity [1]: 88 nM; EC50, inhibition of forskolin-stimulated β-galactosidase activity [2]: 125 nM
porcine relaxin (from UniProt P01348 25-182) (ligand)										EC50, stimulation of β-galactosidase activity [3]: 0.25 nM; EC50, induction of β-galactosidase activity [4]: 1.5 nM
B1	2.2	2.9	2.5	258	475	2.3	2.3	3.5		EC50, ligand stimulated β-galactosidase expression [5]: ~300 nM; IC50 [14]: 500 nM
B2	1.1	1.4	1.1	575	615	1.5	1.2	1.8	1 to 5	EC50, ligand stimulated β-galactosidase expression [5]: ~600 nM
B3	8.4	11.2	13.7			12.9	9.5	11.3	10	EC50, inhibition of forskolin stimulated β-galactosidase expression [16]: ~10 nM; EC50, inhibition of forskolin stimulated β-galactosidase expression [17]: ~10 nM; IC50 [18]: 15 nM; binding result [19]: no binding
B4	1.8	2.2	4.5	> 1000	> 1000	5.1	2.9	2.6	1 to 5	
B5										EC50, induction of β-galactosidase activity [5]: 0.16 nM
